Changes are numbered by the printed parent chain.
Tests used:
[1] = target: T1, IL-33 mutant protein K48A (human, UniProt O95760 112-270); test: ELISA as Example 9; row K48A
T1 construct: Prokaryotic expression
T1 chain: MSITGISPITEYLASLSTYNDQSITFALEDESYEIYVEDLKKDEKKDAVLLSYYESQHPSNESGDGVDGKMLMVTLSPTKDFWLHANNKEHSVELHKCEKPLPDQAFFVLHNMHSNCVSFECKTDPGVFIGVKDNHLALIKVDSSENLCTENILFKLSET
Method: (§1) SA protein was diluted to 2 μg/mL to coat ELISA plate at 100 μL/well overnight at 4° C. The plate was washed with PBST (PBS containing 0.05% Tween20) for 3 times, and blocked with 2% BSA prepared in PBS at 200 μL/well, at room temperature for 2 h. After the plate was washed twice with PBST, IL-33-his-biotin protein was diluted to 1 μg/mL with 1% BSA prepared in PBST, and was added to ELISA plate at 100 μL/well. The plate was incubated at room temperature for 1 h, and each monoclonal antibody was diluted with 1% BSA prepared in PBST in a 3-fold gradient. The highest concentration of antibody was 10 μg/mL, and the antibody was diluted for 12 gradients. Each diluted monoclonal antibody was added to ELISA wells with 100 μL/well, and the plate was incubated at room temperature for 1 h. Each sample was added to duplicate wells in parallel. The plate was washed with PBST for 3 times, and HRP-anti human IgG Fc secondary antibody prepared with PBST was diluted at an appropriate ratio, and was added to ELISA wells at 100 μL/well. […] Each reaction solution was shaken uniformly and OD450 nm was read on a microplate reader. The data was analyzed and EC₅₀ was calculated.
(§2) Subsequently, according to the experimental method of Example 9, the affinity of the above mutant proteins to 874F7-Hu1 was determined, and IL-33 proteins (WT-1, WT-2, WT-3, and WT-4) without any mutation were set as controls.

[2] = target: T2, IL-33 mutant protein N61A (human, UniProt O95760 112-270); test: ELISA as Example 9; row N61A
T2 chain: T1 chain with A48K, N61A
Method: as §1, §2

[3] = target: T3, Human IL-33-his (human, UniProt O95760 112-270, biotinylated with EZ-Link NHS-Biotin where used as IL-33-his-biotin); test: SPR Biacore 8K, antibody captured on Protein A/G chip, IL-33-his as analyte, 1:1 model
T3 construct: Used plain (SPR, cell assays) and biotinylated (ELISA); also called IL-33-his-biotin
T3 sequence: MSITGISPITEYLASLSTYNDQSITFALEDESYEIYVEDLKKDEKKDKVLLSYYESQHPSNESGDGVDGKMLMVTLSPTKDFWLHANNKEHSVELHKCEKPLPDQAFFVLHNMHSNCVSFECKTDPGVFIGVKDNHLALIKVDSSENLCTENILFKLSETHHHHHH
Method: A chip with covalently coupled Protein A/G (purchased from GE Healthcare, catalog number BR-1005-30) was used to capture each antibody to be tested, and the relevant operating parameters were as follows: The antibody concentration was […], the contact time was 75 s, the flow rate was […], and the regeneration contact time was 30 s. The IL-33-his antigen was diluted with HBS-EP pH7.4 buffer solution (purchased from GE Healthcare, catalog number BR-1006-69). The maximum concentration was 50 nM, and diluted to 0.39 nM by two-fold dilution. Duplicate wells and 0 concentration point well were set, and 6M guanidine hydrochloride solution was used as the regeneration buffer. The sample was injected on Biacore 8K according to the following parameters, the binding time was 180 s, the dissociation time was 900 s, the flow rate was 30 μL/min, and the regeneration contact time was 30 s. After running, Biacore 8K Evaluation Software was used to analyze the data according to the “1:1 binding kinetics model”, and the binding kinetics parameters of each antibody to IL-33 were obtained.

[4] = target: T3, Human IL-33-his; test: competition ELISA, antibody mixed with IL-33-his-biotin, ST2 on plate; competitor ST2
Method: ST2 is the only receptor for IL-33 that has been discovered so far. As a cytokine, IL-33 exerts its physiological function depending on ST2 signaling pathway, and the blocking activity of antibody can reflect the neutralizing activity thereof. The specific method was as follows: the plate was coated with 2 μg/ml ST2 PBS solution at 4° C. overnight; the plate was washed with PBST for 3 times, then the plated was blocked with 5% skim milk powder at 37° C. for 2 hours; the plate was washed with PBST for 3 times for later use. 20 ng/ml IL-33-his-biotin antigen diluted by 1% BSA was mixed with antibodies to be tested diluted by gradient with 1% BSA at 1:1 equal volume and incubated at 37° C. for […]. The mixture was added to a pre-coated ST2 plate and incubated at 37° C. for 1 h. The plate was washed with PBST for 3 times. HRP-labeled streptavidin secondary antibody was added at 1:8000 and incubated at 37° C. for 0.5 hours. After washing the plate with PBST for 3 times, the plate was patted on the absorbent paper to remove residual droplets as far as possible. 100 μl TMB was added to each well, and the plate was placed at room temperature (20±5° C.) for 5 minutes away from light; 50 μl 2M H₂SO₄ terminating solution was added to each well to terminate the substrate reaction. OD values were read at 450 nm on the microplate reader.

B1: 874F7-Hu1 (antibody, human IgG4 S228P, kappa)
heavy: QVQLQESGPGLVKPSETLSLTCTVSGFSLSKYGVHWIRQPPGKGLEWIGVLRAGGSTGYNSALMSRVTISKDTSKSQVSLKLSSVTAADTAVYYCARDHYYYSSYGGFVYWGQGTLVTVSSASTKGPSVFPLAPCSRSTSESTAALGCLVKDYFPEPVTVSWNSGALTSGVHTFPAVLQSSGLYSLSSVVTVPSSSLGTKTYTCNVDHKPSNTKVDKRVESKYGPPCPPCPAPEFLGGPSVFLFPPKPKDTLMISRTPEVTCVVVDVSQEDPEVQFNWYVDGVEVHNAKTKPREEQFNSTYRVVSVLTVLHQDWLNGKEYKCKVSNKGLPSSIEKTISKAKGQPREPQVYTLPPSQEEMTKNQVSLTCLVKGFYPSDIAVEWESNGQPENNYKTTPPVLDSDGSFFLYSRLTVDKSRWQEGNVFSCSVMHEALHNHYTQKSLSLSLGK
light: DIQMTQSPSSVSASVGDRVTITCLASQTIGAWLAWYQQKPGKSPKLLIYAATRLADGVPSRFSGSGSGTDFTLTISSLQPEDFATYYCQQLDSSPYTFGQGTKVEIKRTVAAPSVFIFPPSDEQLKSGTASVVCLLNNFYPREAKVQWKVDNALQSGNSQESVTEQDSKDSTYSLSSTLTLSKADYEKHKVYACEVTHQGLSSPVTKSFNRGEC
notes: also called 874F7-Hul; humanized antibody 874F7-Hu1
For B1, the EC50 [1] was 0.49 nM, the EC50 [2] was 0.15 nM and the Kd [3] was 2.82 nM. For the same binder, the koff [3] was 0.00057 s⁻¹ and the kon [3] was 202000 M⁻¹ s⁻¹.

B2: 874F7 (antibody, V domains shown)
VH: QVQLKESGPGLVAPSHSLSITCNVSGFSLSKYGVHWIRQIPGRGLDWLGVLRAGGSTGYNSALMSRLSISKDSSKSQVFLKMNDLRTDDTAVYFCVRDHYYYSSYGGFVYWGQGTLVTVSA
VL: DIQMTQSPASQSASLGESVTITCLASQTIGAWLAWYRQQPGKSPQLLIYAATRLADGVPSRFSGSGSGTEFSFKINNLQAEDFVSYYCQQLDSSPYTFGGGTRLEM
notes: Murine hybridoma antibody purified on Protein G; also called murine antibody 874F7
For B2, the IC50 [4] was 0.9 nM.
